Reference: US20160274129

T1: α-fructosyl-valyl-histidyl-leucyl-threonyl-proryl-glutamic acid
T1 chain: VHLTPE

B1: CFP-T7-H3 (protein)
chain: MTSNRADTRVIVVGGGGTIGSSTALHLVRSGYAPANITVLDTFEIPSAQSAGHDLNKIMGIALRNKVDLQMSLEARQMWKEDELFQPFFHNTGRMDCEHTPEGIEDLKKFYQALHDAGAGLEKTHAWLDNEDEILSKMPLLQRDQIQGWKAIWSQDGGWLAAAKAINAIGQFLKERGVKFGFGGAGSFKQPLFDDEGTTCIGVETADGTKYYADKVVLAAGAWSPTLVDLEDQCCSKAWVYAHIQLTPEEAAEYKGVPVVYNGEFGFFFEPDEFGVIKVCDEFPGFSRFKEHQPYGAPSPKRISVPRSHAKHPTDTYPDASEVSIKKAIATFLPRFQDKELFNRALCWCTDTADAALLMCEHPKWKNFILATGDSGHSFKILPNVGKYVVELIEGRLPEEMAYQWRWRPGGDALKSRRAAPPKDLADMPGWKHDPKL
B2: CFP-T7-H2-62Q (protein)
chain: MTSNRADTRVIVVGGGGTIGSSTALHLVRSGYAPANITVLDTFEIPSAQSAGHDLNKIMGIQLRNKVDLQMSLEARQMWKEDELFQPFFHNTGRMDCEHTPEGIEDLKKLYQALHDAGAGLEKTHAWLDNEDEILSKMPLLQRDQIQGWKAIWSQDGGWLAAAKAINAIGQFLKERGVKFGFGGAGSFKQPLFDDEGTTCIGVETADGTKYYADKVVLAAGAWSPTLVDLEDQCCSKAWVYAHIQLTPEEAAEYKGVPVVYNGEFGFFFEPDEFGVIKVCDEFPGFSRFKEHQPYGAPSPKRISVPRSHAKHPTDTYPDASEVSIKKAIATFLPRFQDKELFNRALCWCTDTADAALLMCEHPKWKNFILATGDSGHSFKILPNVGKYVVELIEGRLPEEMAYQWRWRPGGDALKSRRAAPPKDLADMPGWKHDPKL
B3: CFP-T7-H6 (protein)
chain: MTSNRADTRVIVVGGGGTIGSSTALHLVRSGYAPANITVLDTFEIPSAQSAGHDLNKIMGIDLRNKVDLQMSLEARQMWKEDELFQPFFHNTGRMDCEHTPEGIEDLKKLYQALHDAGAGLEKTHAWLDNEDEILSKMPLLQRDQIQGWKAIWSQDGGWLAAAKAINAIGQFLKERGVKFGFGGAGSFKQPLFDDEGTTCIGVETADGTKYYADKVVLAAGAWSPTLVDLEDQCCSKAWVYAHIQLTPEEAAEYKGVPVVYNGEFGFFFEPDEFGVIKVCDEFPGFSRFKEHQPYGAPSPKRISVPRSHAKHPTDTYPDASEVSIKKAIATFLPRFQDKELFNRALCWCTDTADAALLMCEHPKWKNFILATGDSGHSFKILPNVGKYVVELIEGRLPEEMAYQWRWRPGGDALKSRRAAPPKDLADMPGWKHDPKL
B4: CFP-T7-H4 (protein)
chain: MTSNRADTRVIVVGGGGTIGSSTALHLVRSGYAPANITVLDTFEIPSAQSAGHDLNKIMGIALRNKVDLQMSLEARQMWKEDELFQPFFHNTGRMDCEHTPEGIEDLKKYYQALHDAGAGLEKTHAWLDNEDEILSKMPLLQRDQIQGWKAIWSQDGGWLAAAKAINAIGQFLKERGVKFGFGGAGSFKQPLFDDEGTTCIGVETADGTKYYADKVVLAAGAWSPTLVDLEDQCCSKAWVYAHIQLTPEEAAEYKGVPVVYNGEFGFFFEPDEFGVIKVCDEFPGFSRFKEHQPYGAPSPKRISVPRSHAKHPTDTYPDASEVSIKKAIATFLPRFQDKELFNRALCWCTDTADAALLMCEHPKWKNFILATGDSGHSFKILPNVGKYVVELIEGRLPEEMAYQWRWRPGGDALKSRRAAPPKDLADMPGWKHDPKL
B5: CFP-T7-H2-62E (protein)
chain: MTSNRADTRVIVVGGGGTIGSSTALHLVRSGYAPANITVLDTFEIPSAQSAGHDLNKIMGIELRNKVDLQMSLEARQMWKEDELFQPFFHNTGRMDCEHTPEGIEDLKKLYQALHDAGAGLEKTHAWLDNEDEILSKMPLLQRDQIQGWKAIWSQDGGWLAAAKAINAIGQFLKERGVKFGFGGAGSFKQPLFDDEGTTCIGVETADGTKYYADKVVLAAGAWSPTLVDLEDQCCSKAWVYAHIQLTPEEAAEYKGVPVVYNGEFGFFFEPDEFGVIKVCDEFPGFSRFKEHQPYGAPSPKRISVPRSHAKHPTDTYPDASEVSIKKAIATFLPRFQDKELFNRALCWCTDTADAALLMCEHPKWKNFILATGDSGHSFKILPNVGKYVVELIEGRLPEEMAYQWRWRPGGDALKSRRAAPPKDLADMPGWKHDPKL
B6: CFP-T7-H2-62N (protein)
chain: MTSNRADTRVIVVGGGGTIGSSTALHLVRSGYAPANITVLDTFEIPSAQSAGHDLNKIMGINLRNKVDLQMSLEARQMWKEDELFQPFFHNTGRMDCEHTPEGIEDLKKLYQALHDAGAGLEKTHAWLDNEDEILSKMPLLQRDQIQGWKAIWSQDGGWLAAAKAINAIGQFLKERGVKFGFGGAGSFKQPLFDDEGTTCIGVETADGTKYYADKVVLAAGAWSPTLVDLEDQCCSKAWVYAHIQLTPEEAAEYKGVPVVYNGEFGFFFEPDEFGVIKVCDEFPGFSRFKEHQPYGAPSPKRISVPRSHAKHPTDTYPDASEVSIKKAIATFLPRFQDKELFNRALCWCTDTADAALLMCEHPKWKNFILATGDSGHSFKILPNVGKYVVELIEGRLPEEMAYQWRWRPGGDALKSRRAAPPKDLADMPGWKHDPKL
B7: Cc95FX (protein)
chain: MAPSRANTSVIVVGGGGTIGSSTALHLVRSGYTPSNITVLDAYPIPSSQSAGNDLNKIMGIRLRNKVDLQLSLEARQMWREDDLFKEYFHNTGRLDCAHGEEGLADLRQAYQALLDANAGLEETTEWLDSEDEILKKMPLLSRDQIKGWKAVYSQDGGWLAAAKAINAIGEYLRAQGVKFGFGGAGSFKQPLLAEGVCIGVETVDGTRYYADKVVLAAGAWSPTLVELHEQCVSKAWVYGHIQLTPEEAAEYKNSPVVYNGDVGFFFEPNEHGVIKVCDEFPGFTRFKMHQPFGAKAPKRISVPRSHAKHPTDTIPDASEKSIRKAIATFLPKFTEKELFNRHLCWCTDTADAALLICEHPEWKNFVLATGDSGHSFKLLPNIGKHVVELLEGTLADDLAHAWRWRPGSGDALKSRRSAPAKDLADMPGWKHDDVVKSKL
B8: Cc95FX-62D/63H/106K/110L/113K/353S (protein)
chain: MAPSRANTSVIVVGGGGTIGSSTALHLVRSGYTPSNITVLDAYPIPSSQSAGNDLNKIMGIDHRNKVDLQLSLEARQMWREDDLFKEYFHNTGRLDCAHGEEGLAKLRQLYQKLLDANAGLEETTEWLDSEDEILKKMPLLSRDQIKGWKAVYSQDGGWLAAAKAINAIGEYLRAQGVKFGFGGAGSFKQPLLAEGVCIGVETVDGTRYYADKVVLAAGAWSPTLVELHEQCVSKAWVYGHIQLTPEEAAEYKNSPVVYNGDVGFFFEPNEHGVIKVCDEFPGFTRFKMHQPFGAKAPKRISVPRSHAKHPTDTIPDASEKSIRKAIATFLPKFTEKELFNRHLCWCTDTADSALLICEHPEWKNFVLATGDSGHSFKLLPNIGKHVVELLEGTLADDLAHAWRWRPGSGDALKSRRSAPAKDLADMPGWKHDDVVKSKL

Molecular target: T1, α-fructosyl-valyl-histidyl-leucyl-threon …

Protein | αF6P oxidation activity (crude enzyme; αFVH oxidation activity = 100) (relative (αFVH = 100)) | αF6P/αFV | αF6P/αFVH | αF6P oxidation activity ratio (crude enzyme; CFP-T7-H2 = 100) (relative (CFP-T7-H2 = 100))
B1 | 0.0298 | 0.000205 | 0.000298 | –
B2 | – | – | – | 11
B3 | 3 | 0.00347 | 0.03 | 513
B4 | 0.0341 | 0.000319 | 0.000341 | –
B5 | – | – | – | 21
B6 | – | – | – | 120
B7 | 0 | 0 | 0 | –
B8 | 237 | 0.0144 | 2.37 | –
